Data from article PMC5624731 (2018).

Assays:
Assay in all cases: nESI-MS
PCBP1 = PCBP1 (Homo sapiens, UniProt Q15365)
Ferredoxin = Ferredoxin (Spinacia oleracea, UniProt P00221)
PCBP1 (apo) = PCBP1 (apo) (Homo sapiens, UniProt Q15365)
Sequence of PCBP1 (apo) (Q15365 whole entry): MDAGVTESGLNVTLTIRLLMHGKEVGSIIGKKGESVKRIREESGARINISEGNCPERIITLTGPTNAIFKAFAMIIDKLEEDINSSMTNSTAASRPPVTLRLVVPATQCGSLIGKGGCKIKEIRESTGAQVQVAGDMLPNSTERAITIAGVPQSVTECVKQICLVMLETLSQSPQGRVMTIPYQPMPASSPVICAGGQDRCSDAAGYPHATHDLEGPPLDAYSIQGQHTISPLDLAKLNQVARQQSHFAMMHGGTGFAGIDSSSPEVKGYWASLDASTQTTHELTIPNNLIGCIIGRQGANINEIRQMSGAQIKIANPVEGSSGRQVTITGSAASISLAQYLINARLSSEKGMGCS

Sequence of PCBP1 (Q15365 whole entry): as above
Sequence of Ferredoxin (P00221 51-147): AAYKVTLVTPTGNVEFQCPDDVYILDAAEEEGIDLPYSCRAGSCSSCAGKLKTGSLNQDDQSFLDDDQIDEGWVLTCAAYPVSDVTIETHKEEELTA

B1: HDAC8 (Zn) (protein)
chain: MEEPEEPADSGQSLVPVYIYSPEYVSMCDSLAKIPKRASMVHSLIEAYALHKQMRIVKPKVASMEEMATFHTDAYLQHLQKVSQEGDDDHPDSIEYGLGYDCPATEGIFDYAAAIGGATITAAQCLIDGMCKVAINWSGGWHHAKKDEASGFCYLNDAVLGILRLRRKFERILYVDLDLHHGDGVEDAFSFTSKVMTVSLHKFSPGFFPGTGDVSDVGLGKGRYYSVNVPIQDGIQDEKYYQICESVLKEVYQAFNPKAVVLQLGADTIAGDPMCSFNMTPVGIGKCLKYILQWQLATLILGGGGYNLANTARCWTYLTGVILGKTLSSEIPDHEFFTAYGPDYVLEITPSCRPDRNEPHRIQQILNYIKGNLKHVV
modifications: Zn2+-bound HDAC8
Work on B1 yielded a Kd (PCBP1) of 60 µM.

B2: Ferredoxin-NADP+ reductase (protein)
chain: QIASDVEAPPPAPAKVEKHSKKMEEGITVNKFKPKTPYVGRCLLNTKITGDDAPGETWHMVFSHEGEIPYREGQSVGVIPDGEDKNGKPHKLRLYSIASSALGDFGDAKSVSLCVKRLIYTNDAGETIKGVCSNFLCDLKPGAEVKLTGPVGKEMLMPKDPNATIIMLGTGTGIAPFRSFLWKMFFEKHDDYKFNGLAWLFLGVPTSSSLLYKEEFEKMKEKAPDNFRLDFAVSREQTNEKGEKMYIQTRMAQYAVELWEMLKKDNTYFYMCGLKGMEKGIDDIMVSLAAAEGIDWIEYKRQLKKAEQWNVEVY
In the case of B2, the Kd (Ferredoxin) is reported as 16 µM.

B3: HDAC8 (protein)
chain: MEEPEEPADSGQSLVPVYIYSPEYVSMCDSLAKIPKRASMVHSLIEAYALHKQMRIVKPKVASMEEMATFHTDAYLQHLQKVSQEGDDDHPDSIEYGLGYDCPATEGIFDYAAAIGGATITAAQCLIDGMCKVAINWSGGWHHAKKDEASGFCYLNDAVLGILRLRRKFERILYVDLDLHHGDGVEDAFSFTSKVMTVSLHKFSPGFFPGTGDVSDVGLGKGRYYSVNVPIQDGIQDEKYYQICESVLKEVYQAFNPKAVVLQLGADTIAGDPMCSFNMTPVGIGKCLKYILQWQLATLILGGGGYNLANTARCWTYLTGVILGKTLSSEIPDHEFFTAYGPDYVLEITPSCRPDRNEPHRIQQILNYIKGNLKHVV
B3 gave a Kd (PCBP1) of 63 µM.

B4: HDAC8 (Fe) (protein)
chain: MEEPEEPADSGQSLVPVYIYSPEYVSMCDSLAKIPKRASMVHSLIEAYALHKQMRIVKPKVASMEEMATFHTDAYLQHLQKVSQEGDDDHPDSIEYGLGYDCPATEGIFDYAAAIGGATITAAQCLIDGMCKVAINWSGGWHHAKKDEASGFCYLNDAVLGILRLRRKFERILYVDLDLHHGDGVEDAFSFTSKVMTVSLHKFSPGFFPGTGDVSDVGLGKGRYYSVNVPIQDGIQDEKYYQICESVLKEVYQAFNPKAVVLQLGADTIAGDPMCSFNMTPVGIGKCLKYILQWQLATLILGGGGYNLANTARCWTYLTGVILGKTLSSEIPDHEFFTAYGPDYVLEITPSCRPDRNEPHRIQQILNYIKGNLKHVV
modifications: Fe2+-bound HDAC8
Binder B4 has a Kd (PCBP1) of 44 µM.

B5: HDAC8 (apo) (protein)
chain: MEEPEEPADSGQSLVPVYIYSPEYVSMCDSLAKIPKRASMVHSLIEAYALHKQMRIVKPKVASMEEMATFHTDAYLQHLQKVSQEGDDDHPDSIEYGLGYDCPATEGIFDYAAAIGGATITAAQCLIDGMCKVAINWSGGWHHAKKDEASGFCYLNDAVLGILRLRRKFERILYVDLDLHHGDGVEDAFSFTSKVMTVSLHKFSPGFFPGTGDVSDVGLGKGRYYSVNVPIQDGIQDEKYYQICESVLKEVYQAFNPKAVVLQLGADTIAGDPMCSFNMTPVGIGKCLKYILQWQLATLILGGGGYNLANTARCWTYLTGVILGKTLSSEIPDHEFFTAYGPDYVLEITPSCRPDRNEPHRIQQILNYIKGNLKHVV
In the case of B5, the Kd (PCBP1 (apo)) is reported as 68 µM.
